Experimental findings from publication PMC7076015 are described below.

The target of assay [1] is MBP-KPNA7(E344Q) (human) (UniProt A9QM74).
For assay [2] the target is unchanged. The source holds these as a separate data set.
The target is the same in assay [3]. Description: pull-down; MBP fusion proteins on amylose resin (1 μg/μl), GST-GFP-NLS constructs in solution (250 nM or indicated concentrations) with Imp-β (250 nM); 2 hrs at 4 °C, 20 mM Tris pH 8, 200 mM NaCl, 1 mM EDTA, 1 mM DTT, 0.05% Triton X-100; western blot. Background: A western blot detects proteins with antibodies after separation by electrophoresis.

Chain of MBP-KPNA7(E344Q) (human) (A9QM74 whole entry E344Q): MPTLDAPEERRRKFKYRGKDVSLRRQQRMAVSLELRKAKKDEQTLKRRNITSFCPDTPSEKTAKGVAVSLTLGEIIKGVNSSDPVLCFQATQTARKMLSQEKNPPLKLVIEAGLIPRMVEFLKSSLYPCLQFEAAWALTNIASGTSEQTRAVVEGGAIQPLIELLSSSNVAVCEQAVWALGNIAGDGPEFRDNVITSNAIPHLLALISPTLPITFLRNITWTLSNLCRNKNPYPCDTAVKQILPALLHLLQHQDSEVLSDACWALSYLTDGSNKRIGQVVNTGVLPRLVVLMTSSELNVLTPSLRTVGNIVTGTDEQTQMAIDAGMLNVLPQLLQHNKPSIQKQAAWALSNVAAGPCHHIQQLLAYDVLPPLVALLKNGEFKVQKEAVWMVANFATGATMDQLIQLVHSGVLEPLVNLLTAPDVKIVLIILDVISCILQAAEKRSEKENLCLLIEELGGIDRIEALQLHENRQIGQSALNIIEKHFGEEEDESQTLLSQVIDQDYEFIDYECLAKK
Chain of GST-GFP-hnRNP U monopartite NLS (domain or fragment) (Q00839 2-825): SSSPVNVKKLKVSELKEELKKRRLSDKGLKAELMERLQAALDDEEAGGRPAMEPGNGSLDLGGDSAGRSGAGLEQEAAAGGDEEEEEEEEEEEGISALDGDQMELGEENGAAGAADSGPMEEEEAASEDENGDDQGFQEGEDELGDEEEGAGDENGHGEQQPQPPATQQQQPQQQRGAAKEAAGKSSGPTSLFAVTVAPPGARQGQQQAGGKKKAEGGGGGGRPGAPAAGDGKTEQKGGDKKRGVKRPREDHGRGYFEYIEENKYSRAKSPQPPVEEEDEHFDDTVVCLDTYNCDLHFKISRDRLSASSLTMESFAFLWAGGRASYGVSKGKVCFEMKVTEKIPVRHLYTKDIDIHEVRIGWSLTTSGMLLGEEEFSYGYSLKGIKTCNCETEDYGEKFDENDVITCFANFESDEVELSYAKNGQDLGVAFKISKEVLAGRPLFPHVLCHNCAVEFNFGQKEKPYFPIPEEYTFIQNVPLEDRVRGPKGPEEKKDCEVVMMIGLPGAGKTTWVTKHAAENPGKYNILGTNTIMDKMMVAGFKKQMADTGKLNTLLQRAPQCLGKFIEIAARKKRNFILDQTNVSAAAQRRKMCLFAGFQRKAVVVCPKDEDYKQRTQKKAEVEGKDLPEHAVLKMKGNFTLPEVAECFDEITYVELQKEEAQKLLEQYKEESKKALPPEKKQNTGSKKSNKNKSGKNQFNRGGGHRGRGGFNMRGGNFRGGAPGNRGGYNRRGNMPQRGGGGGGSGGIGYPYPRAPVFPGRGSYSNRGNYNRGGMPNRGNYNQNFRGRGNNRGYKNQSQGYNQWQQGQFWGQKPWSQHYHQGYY

With GST-GFP-SV40-NLS (domain or fragment), the nuclear import of GST-GFP-NLS in digitonin-permeabilized HeLa cells, reduction compared to wild-type KPNA7 in the assay with MBP-KPNA7(E344Q) (human) [1] is 20%.

In the case of “GST-GFP-hnRNP U monopartite NLS (domain or fragment)”, the nuclear import of GST-GFP-hnRNP U-mNLS in digitonin-permeabilized HeLa cells, reduction compared to WT KPNA7 with MBP-KPNA7(E344Q) (human) [2] came to 30%. Moreover, the fold less binding than WT or P339A KPNA7 in the assay with MBP-KPNA7(E344Q) (human) [3] was determined as 8 fold.
